Reference: US10793871B2, “Nucleic acid molecule encoding glei protein variant with increased phytic acid sensitivity and use thereof” (University-Industry Foundation, Yonsei University, priority 2015, dated 2020)

T1: Dbp5 ATPase (Saccharomyces cerevisiae, UniProt P20449+Q12315)
T1 sequence (P20449 1-482): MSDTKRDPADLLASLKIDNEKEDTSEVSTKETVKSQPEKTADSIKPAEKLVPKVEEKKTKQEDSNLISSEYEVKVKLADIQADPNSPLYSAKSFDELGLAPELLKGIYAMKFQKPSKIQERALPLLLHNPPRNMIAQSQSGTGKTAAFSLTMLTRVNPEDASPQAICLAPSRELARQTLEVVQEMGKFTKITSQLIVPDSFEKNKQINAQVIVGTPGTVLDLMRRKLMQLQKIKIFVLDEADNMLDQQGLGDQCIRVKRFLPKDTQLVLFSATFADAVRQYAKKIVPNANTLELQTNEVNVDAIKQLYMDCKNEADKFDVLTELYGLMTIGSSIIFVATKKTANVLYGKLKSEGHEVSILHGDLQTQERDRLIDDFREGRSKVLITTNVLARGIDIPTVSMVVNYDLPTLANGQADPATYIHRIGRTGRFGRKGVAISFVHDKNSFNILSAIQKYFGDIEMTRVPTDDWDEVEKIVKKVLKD
T1 sequence (Q12315 1-538): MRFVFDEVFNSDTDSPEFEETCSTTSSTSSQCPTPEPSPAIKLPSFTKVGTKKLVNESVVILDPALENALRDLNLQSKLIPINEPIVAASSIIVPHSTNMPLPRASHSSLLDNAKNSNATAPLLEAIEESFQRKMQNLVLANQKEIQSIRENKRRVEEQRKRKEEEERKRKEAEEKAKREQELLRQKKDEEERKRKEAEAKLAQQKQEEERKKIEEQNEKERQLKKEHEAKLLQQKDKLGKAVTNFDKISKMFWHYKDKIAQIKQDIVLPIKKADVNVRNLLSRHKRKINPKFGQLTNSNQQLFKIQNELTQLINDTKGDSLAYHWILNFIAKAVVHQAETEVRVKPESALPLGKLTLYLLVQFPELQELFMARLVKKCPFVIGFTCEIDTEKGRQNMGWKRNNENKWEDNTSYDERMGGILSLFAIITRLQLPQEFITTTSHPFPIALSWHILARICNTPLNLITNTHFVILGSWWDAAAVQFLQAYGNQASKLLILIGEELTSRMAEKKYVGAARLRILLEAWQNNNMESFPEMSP

T2: LOS4 ATPase (Arabidopsis thaliana, UniProt Q0WPZ7)
T2 construct: LOS4 was cloned into a pET-29a vector for His fusion; made in house; host or cells: Escherichia coli Rosetta (DE3) for LOS4-His; BL21 (DE3) for MBP-Gle1C
T2 sequence (Q0WPZ7 244-611): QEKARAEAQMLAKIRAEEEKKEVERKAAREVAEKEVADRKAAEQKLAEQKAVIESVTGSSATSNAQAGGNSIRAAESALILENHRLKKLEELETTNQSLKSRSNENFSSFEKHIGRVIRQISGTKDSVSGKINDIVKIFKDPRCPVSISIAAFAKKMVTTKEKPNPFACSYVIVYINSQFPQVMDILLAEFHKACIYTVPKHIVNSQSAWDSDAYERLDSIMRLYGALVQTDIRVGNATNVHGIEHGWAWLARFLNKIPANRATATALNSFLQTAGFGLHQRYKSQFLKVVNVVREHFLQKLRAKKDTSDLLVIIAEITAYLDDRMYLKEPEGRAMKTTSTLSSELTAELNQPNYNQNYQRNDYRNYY

B1: MBP-Gle1C: MBP fusion protein of the carboxyl-terminal domain of Gle1 (amino acid residues 244-611), wild type (protein)
chain: QEKARAEAQMLAKIRAEEEKKEVERKAAREVAEKEVADRKAAEQKLAEQKAVIESVTGSSATSNAQAGGNSIRAAESALILENHRLKKLEELETTNQSLKSRSNENFSSFEKHIGRVIRQISGTKDSVSGKINDIVKIFKDPRCPVSISIAAFAKKMVTTKEKPNPFACSYVIVYINSQFPQVMDILLAEFHKACIYTVPKHIVNSQSAWDSDAYERLDSIMRLYGALVQTDIRVGNATNVHGIEHGWAWLARFLNKIPANRATATALNSFLQTAGFGLHQRYKSQFLKVVNVVREHFLQKLRAKKDTSDLLVIIAEITAYLDDRMYLKEPEGRAMKTTSTLSSELTAELNQPNYNQNYQRNDYRNYY

Experiments:
[1] = system: LOS4 ATPase; assay: Steady-state ATPase assay of LOS4-His; assay type: biochemical, Arabidopsis thaliana
Procedure: (§1) A steady-state ATPase assay was performed as described by Alcázar-Román et al. (Inositol hexakisphosphate and Gle1 activate the DEAD-box protein Dbp5 for nuclear mRNA export. Nat. Cell Biol. 8: 711-716, 2006) with slight modifications. The ATPase assay was performed with a LOS4-His protein in a 96-well plate using a buffer containing 20 mM HEPES (pH 7.5), 150 mM NaCl, 3 mM MgCl2, 1 mM DTT, 2 mM ATP, 6 mM phosphoenolpyruvate, 1.2 mM NADH, 1 mg/ml BSA and 2% (v/v) pyruvate kinase/lactate dihydrogenase (Sigma-Aldrich) in a total volume of 100 μl. Polyadenylic acid was added at 50 μg/ml or different concentrations as described above. Absorbance at 340 nm was measured using a VersaMax absorbance microplate reader (Molecular Devices), and the data were analyzed using SoftMax Pro software (Molecular Devices).
(§2) Gle1 and Gle1C (aa residues 244-611) were cloned into a pMAL C2X vector (New England Biolabs) for MBP fusion, LOS4 was cloned into a pET-29a vector for His fusion. MBP-Gle1 and MBP-Gle1C proteins were expressed in a BL21 (DE3) strain, and LOS4-His proteins were expressed in a Rosseta (DE3) strain of Escherichia coli. Cells were grown at 37° C. to an A600 of 0.4, shifted to 16° C., and induced by 0.25 mM IPTG for 16 hours. The MBP- and His-fusion proteins were purified following the manufacturer's introductions using MBP Excellose (Bioprogen) and His60 Ni Superflow™ resin (Clontech), respectively.

[2] = target: T1, Dbp5 ATPase; settings: yeast; InsP6 100 nM added to Gle1 and RNA; cited from earlier work
[3] = target: T2, LOS4 ATPase; assay: Steady-state ATPase assay of LOS4-His; assay type: biochemical; settings: MBP-Gle1C alone (2 μM), without LOS4
Procedure: as §1, §2

Molecule | additional increase in LOS4 activity by InsP6 ([1]; InsP6 10 μM added to Gle1 and RNA (FIG. 5B)) [%] | increase of LOS4 ATPase activity ([1]; LOS4-His 1 μM, ATP 2 mM, RNA 50 μg/ml, MBP-Gle1 2 μM plus 10 μM InsP6) [fold] | additional increase in Dbp5 ATPase activity [2] | intrinsic ATPase activity [3] | LOS4-His ATPase activity on addition of increasing amounts of protein ([1]; 0-4 μM MBP-Gle1C, 1 μM LOS4-His, 2 mM ATP, RNA (FIG. 4C)) | stimulation of LOS4 ATPase activity in the absence of InsP6 ([1]; 1 μM LOS4-His, 2 mM ATP, RNA, 2 μM MBP-Gle1C or variant, no InsP6) | increase in the overall catalytic rate of LOS4 ([1]; LOS4-His 1 μM with MBP-Gle1C 2 μM vs LOS4-His alone) | apparent kcat of LOS4-His ([1]; LOS4-His (1 μM) with MBP-Gle1C (2 μM), 0-2 mM ATP) [s⁻¹] | maximal increase in LOS4 ATPase activity with RNA ([1]; LOS4-His:MBP-Gle1C 1:2, addition of RNA (polyadenylic acid) at different concentrations) [fold] | InsP6 concentration at which LOS4-stimulating activity increases above basal ([1]; with RNA, InsP6 0-100 μM) [µM] | InsP6 concentration giving maximum LOS4-stimulating activity ([1]; with RNA, InsP6 0-100 μM) [µM] | InsP6 concentrations at which only basal LOS4-stimulating activity is maintained ([1]; with RNA, InsP6 0-100 μM) [nM]
O=P(O)(O)O[C@H]1[C@H](OP(=O)(O)O)[C@@H](OP(=O)(O)O)[C@H](OP(=O)(O)O)[C@@H](OP(=O)(O)O)[C@H]1OP(=O)(O)O [InsP6, Myo-inositol-1,2,3,4,5,6-hexakisphosphate, reference compound] | 30 | > 4 | 3- to 4 fold |  |  |  |  |  |  |  |  | 
B1 |  |  |  | did not show intrinsic ATPase activity | activated LOS4-His ATPase activity in a concentration-dependent manner | activated LOS4 ATPase activity to similar degrees | approximately two-fold | 0.565 | ~3 | 1 | 10 | 1 to 100
